From publication PMC5562738, “Structural basis for the broad substrate specificity of the human tyrosylprotein sulfotransferase-1” (Scientific Reports, 2017)

How the values were obtained:
[1] = biological target: recombinant human TPST1 (Lys43-Lys341), as crystallised with PAP and C4P5Y5 (human) (UniProt O60507)
[2] = biological target: the molecule itself; test: crystal structure; human TPST1 (2.5 mg/ml) with 2 mM PAP and 1 mM C4P5Y5, sitting-drop vapor diffusion at 20 °C, 0.1 M Tris-HCl pH 8.5; 1.6 Å
[3] = biological target: the molecule itself; test: crystal structure; human TPST1 (5.0 mg/ml, His tag removed) with 2 mM PAP and 3 mM gastrin peptide, sitting-drop vapor diffusion at 20 °C, crystals soaked 1 d with 30 mM gastrin peptide; 2.3 Å

gastrin peptide
K m of tyrosine sulfation of the peptide by human TPST1 ([35S]PAPS, TLC, 30 °C, pH 6.0) [1]: 652 µM

B1: recombinant human TPST1 (Lys43-Lys341), as crystallised with PAP and C4P5Y5 (enzyme, UniProt O60507 43-341, looked up)
chain: KLESTRTTVRTGLDLKANKTFAYHKDMPLIFIGGVPRSGTTLMRAMLDAHPDIRCGEETRVIPRILALKQMWSRSSKEKIRLDEAGVTDEVLDSAMQAFLLEIIVKHGEPAPYLCNKDPFALKSLTYLSRLFPNAKFLLMVRDGRASVHSMISRKVTIAGFDLNSYRDCLTKWNRAIETMYNQCMEVGYKKCMLVHYEQLVLHPERWMRTLLKFLQIPWNHSVLHHEEMIGKAGGVSLSKVERSTDQVIKPVNVGALSKWVGKIPPDVLQDMAVIAPMLAKLGYDPYANPPNYGKPDPK
notes: thrombin site after the His tag (pET15b); Ordered in the crystal: Tyr65-Pro338 and Ala64-Gly336; also called tyrosylprotein sulfotransferase-1; core domain of human TPST1; source: Origami (DE3) cells carrying pGro7 (GroEL, GroES), purified (Ni-NTA, Superdex 200)
stoichiometry N [2]: 2

B2: recombinant human TPST1 (Lys43-Lys341), His tag removed, as crystallised with PAP and the gastrin peptide (enzyme, UniProt O60507 43-341, looked up)
chain: B1 chain
notes: also called tyrosylprotein sulfotransferase-1; protomer-1A; source: Origami (DE3) cells carrying pGro7 (GroEL, GroES), purified (Ni-NTA, Superdex 200), His tag removed with bovine thrombin; not shown: 6xHis, N-terminal, cleaved
stoichiometry N [3]: 2
